Residue numbers refer to the chain shown, from its start.
B1: DA5: humanized or deimmunized variant of parental clone D0; CDRs SEQ ID NO 1, 2, 7 / 4, 10, 13 (antibody, V domains shown)
VH: EVQLVESGGGLVQPGGSLRLSCAASGFTFSSFNMLWVRQAPGKGLEWVAGIGKSDRYTGYGSAVKGRFTISRDDSKSTAYLQMNSLRAEDTAVYYCVRDAGSGCGSGGWTGACIDTWGQGTLVTVSS
VL: DIQMTQSPSSLSASVGDRVTITCSGGDSYAGSYYYGWYQQKPGKAPKTLIYNNNNRPSGVPSRFSGSTSGTDFTLTISSLQPEDFATYYCGSRDSSYVGIFGQGTKVEIK
B2: DA7: humanized or deimmunized variant of parental clone D0; CDRs SEQ ID NO 1, 2, 7 / 4, 10, 13 (antibody, V domains shown)
VH: B1 VH with A79V, V97S
VL: B1 VL
B3: DA13: humanized or deimmunized variant of parental clone D0; CDRs SEQ ID NO 1, 2, 7 / 4, 10, 14 (antibody, V domains shown)
VH: B1 VH with D74T, S77N, V97S
VL: B1 VL with T68R, S96A, Y97G, V98M, I100A
B4: DA17: humanized or deimmunized variant of parental clone D0; CDRs SEQ ID NO 1, 2, 7 / 4, 12, 13 (antibody, V domains shown)
VH: B1 VH with A79V
VL: B1 VL with R56K, P57A, S58K, T68R
B5: DA12: humanized or deimmunized variant of parental clone D0; CDRs SEQ ID NO 1, 2, 7 / 4, 11, 13 (antibody, V domains shown)
VH: B1 VH with D74T, S77N, V97S
VL: B1 VL with R56L, P57M, S58P, T68R
B6: DA9: humanized or deimmunized variant of parental clone D0; CDRs SEQ ID NO 1, 2, 7 / 4, 10, 13 (antibody, V domains shown)
VH: B1 VH with A79L
VL: B1 VL with T68R
B7: DA14: humanized or deimmunized variant of parental clone D0; CDRs SEQ ID NO 1, 2, 7 / 4, 12, 13 (antibody, V domains shown)
VH: B1 VH with D74T, S77N, V97S
VL: B1 VL with R56K, P57A, S58K, T68R
B8: DA18: humanized or deimmunized variant of parental clone D0; CDRs SEQ ID NO 1, 2, 7 / 4, 10, 15 (antibody, V domains shown)
VH: B1 VH with A79V
VL: B1 VL with T68R, S96D, Y97G, V98G, I100R
B9: DA16: humanized or deimmunized variant of parental clone D0; CDRs SEQ ID NO 1, 2, 7 / 4, 10, 16 (antibody, V domains shown)
VH: B1 VH with D74T, S77N, V97S
VL: B1 VL with T68R, Y97G, V98A, I100G
B10: DA15: humanized or deimmunized variant of parental clone D0; CDRs SEQ ID NO 1, 2, 7 / 4, 10, 15 (antibody, V domains shown)
VH: B1 VH with D74T, S77N, V97S
VL: B1 VL with T68R, S96D, Y97G, V98G, I100R
B11: DA6: humanized or deimmunized variant of parental clone D0; CDRs SEQ ID NO 1, 2, 7 / 4, 10, 13 (antibody, V domains shown)
VH: B1 VH with A79V, V97A
VL: B1 VL
B12: DA8: humanized or deimmunized variant of parental clone D0; CDRs SEQ ID NO 1, 2, 7 / 4, 10, 13 (antibody, V domains shown)
VH: B1 VH with A79V
VL: B1 VL with T68G
B13: DA10: humanized or deimmunized variant of parental clone D0; CDRs SEQ ID NO 1, 2, 7 / 4, 10, 13 (antibody, V domains shown)
VH: B1 VH with D74T, S77N, V97S
VL: B1 VL with T68R
B14: DA24: humanized or deimmunized variant of parental clone D0; CDRs SEQ ID NO 1, 2, 7 / 4, 10, 13 (antibody, V domains shown)
VH: AVTLDESGGGLQTPGGGLSLVCKGSGFTFSSFNMLWVRQAPGKGLEWVAGIGKSDRYTGYGSAVKGRATISRDDGQSTVRLQLNNLRAEDTGTYYCVKDAGSGCGSGGWTGACIDTWGHGTEVIVSS
VL: LTQPSSVSANLGGTVEITCSGGDSYAGSYYYGWYQQKAPGSAPVTVIYNNNNRPSNIPSRFSGSTSGSTATLTITGVQAEDEATYYCGSRDSSYVGIFGAGTTLTVL
B15: DA28: humanized or deimmunized variant of parental clone D0; CDRs SEQ ID NO 1, 2, 7 / 4, 10, 13 (antibody, V domains shown)
VH: B14 VH with V79A
VL: B14 VL with T84V, Y86F
B16: DA32: humanized or deimmunized variant of parental clone D0; CDRs SEQ ID NO 1, 2, 7 / 4, 10, 13 (antibody, V domains shown)
VH: B14 VH with G92A, T93V
VL: B14 VL with T84V, Y86F
B17: DA34: humanized or deimmunized variant of parental clone D0; CDRs SEQ ID NO 1, 2, 7 / 4, 10, 13 (antibody, V domains shown)
VH: B14 VH with V79A, R80Y, L83M, N85S, G92A, T93V
VL: B14 VL
B18: DA31: humanized or deimmunized variant of parental clone D0; CDRs SEQ ID NO 1, 2, 7 / 4, 10, 13 (antibody, V domains shown)
VH: B14 VH with V79A, L83M, N85S
VL: B14 VL with Y86F
B19: DA25: humanized or deimmunized variant of parental clone D0; CDRs SEQ ID NO 1, 2, 7 / 4, 10, 13 (antibody, V domains shown)
VH: B14 VH with R80Y, L83M, N85S
VL: B14 VL with T84V, Y86F
B20: DA30: humanized or deimmunized variant of parental clone D0; CDRs SEQ ID NO 1, 2, 7 / 4, 10, 13 (antibody, V domains shown)
VH: B14 VH with V79A, R80Y, L83M, N85S
VL: B14 VL
B21: DA26: humanized or deimmunized variant of parental clone D0; CDRs SEQ ID NO 1, 2, 7 / 4, 10, 13 (antibody, V domains shown)
VH: B14 VH with R80Y, L83M, N85S
VL: B14 VL
B22: DA33: humanized or deimmunized variant of parental clone D0; CDRs SEQ ID NO 1, 2, 7 / 4, 10, 13 (antibody, V domains shown)
VH: B14 VH with V79A, G92A, T93V
VL: B14 VL with Y86F
B23: DA27: humanized or deimmunized variant of parental clone D0; CDRs SEQ ID NO 1, 2, 7 / 4, 10, 13 (antibody, V domains shown)
VH: B14 VH
VL: B14 VL with Y86F

These molecules were tested against Human DR5 (Homo sapiens, UniProt O14763) (assay: Binding affinity of antibody to human DR5 (BIAcore, CM5 chip)). Settings: association rate, Human DR5, 1:1 Langmuir binding model.
Method: In order to measure affinity, human DR5 was coupled to carboxylated dextran biosensor chips (CM5, GE) according to the manufacturer's instruction. Association and dissociation rates were assessed by injecting IgG proteins that were 2-fold serially diluted to 5 nM, 2.5 nM, 1.25 nM, 0.625 nM, 0.313 nM, and 0.156 nM.
Association and dissociation rates were depicted in association and dissociation sensorgrams and calculated using a simple 1:1 Langmuir binding model (BIAcore X100 Evaluation Software, ver. 2.0). The equilibrium dissociation constants (KD), which is the ratio of dissociation constant (Kd) to association constant (Ka), were confirmed to be in the sub-nanomolar range. Measurements of the binding of antibody D0 and DA1 to DA35 of the present disclosure to DR5 are given in Table 11 below (antibody names are given as the names of the clones from which the antibodies were derived). A representative sensorgram for D0 is depicted in FIG. 1.

| Ka [M⁻¹ s⁻¹] | Ka(1/Ms) | Molecule |
| --- | --- | --- |
| 1.2e+06 |  | B1 |
| 1.4e+06 |  | B2 |
|  | 2.62 × 10^06 1/Ms | B3 |
|  | 2.54 × 10^06 1/Ms | B4 |
|  | 2.37 × 10^06 1/Ms | B5 |
| 5.6e+06 |  | B6 |
|  | 4.27 × 10^06 1/Ms | B7 |
|  | 1.33 × 10^06 1/Ms | B8 |
|  | 2.11 × 10^06 1/Ms | B9 |
|  | 2.56 × 10^06 1/Ms | B10 |
| 7.8e+06 |  | B11 |
| 1.6e+06 |  | B12 |
| 2.3e+06 |  | B13 |
|  | 1.20 × 10^06 1/Ms | B14 |
|  | 1.16 × 10^06 1/Ms | B15 |
|  | 1.14 × 10^06 1/Ms | B16 |
|  | 1.00 × 10^06 1/Ms | B17 |
|  | 1.24 × 10^06 1/Ms | B18 |
|  | 1.05 × 10^06 1/Ms | B19 |
|  | 1.03 × 10^06 1/Ms | B20 |
|  | 1.09 × 10^06 1/Ms | B21 |
|  | 1.24 × 10^06 1/Ms | B22 |
|  | 1.17 × 10^06 1/Ms | B23 |

Same assay, conditions: equilibrium dissociation constant, Human DR5

| Kd [nM] | Molecule |
| --- | --- |
| 0.0019 | B2 |
| 0.0112 | B3 |
| 0.0235 | B4 |
| 0.0127 | B5 |
| 0.0235 | B7 |
| 0.0277 | B8 |
| 0.0261 | B9 |
| 0.00109 | B10 |
| 0.007 | B13 |
| 0.00102 | B14 |
| 0.00389 | B15 |
| 0.0751 | B16 |
| 0.0942 | B17 |
| 0.0706 | B18 |
| 0.00162 | B19 |
| 0.0774 | B20 |
| 0.00101 | B21 |
| 0.0788 | B22 |
| 0.00192 | B23 |
